Laboratory results from article PMC4288179, “Synergic interplay of the La motif, RRM1 and the interdomain linker of LARP6 in the recognition of collagen mRNA expands the RNA binding repertoire of the La module”.

Key:
Assay in all cases: ITC; ITC: 20 mM Tris pH 7.25, 100 mM KCl, 5 mM MgCl2, 1 mM DTT, 298 K; protein titrated into RNA
Settings in all cases: protein: recombinant; tags: N-terminal His6 (TEV-cleavable); stem-loop with internal bulge
HsLARP6(70-300) I260A = biological target: T1, HsLARP6(70-300) I260A (Homo sapiens, UniProt Q9BRS8 70-300, I260A)
T1 sequence: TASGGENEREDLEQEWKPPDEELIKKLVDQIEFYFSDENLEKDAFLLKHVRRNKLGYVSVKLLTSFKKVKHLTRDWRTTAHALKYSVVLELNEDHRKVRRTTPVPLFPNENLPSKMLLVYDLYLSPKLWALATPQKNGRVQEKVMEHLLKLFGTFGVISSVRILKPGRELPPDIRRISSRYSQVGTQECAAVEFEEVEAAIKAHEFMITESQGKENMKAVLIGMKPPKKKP

HsLARP6(70-300) Y189A = biological target: T2, HsLARP6(70-300) Y189A (Homo sapiens, UniProt Q9BRS8 70-300, Y189A)
T2 sequence: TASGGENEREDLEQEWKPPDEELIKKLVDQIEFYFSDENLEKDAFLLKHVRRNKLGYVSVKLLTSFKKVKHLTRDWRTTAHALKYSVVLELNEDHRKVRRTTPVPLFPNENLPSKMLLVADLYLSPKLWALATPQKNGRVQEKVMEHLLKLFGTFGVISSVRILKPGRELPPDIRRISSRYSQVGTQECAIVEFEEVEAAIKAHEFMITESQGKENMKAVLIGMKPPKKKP

HsLARP6 LaM (70-183) = biological target: T3, HsLARP6 LaM (70-183) (Homo sapiens, UniProt Q9BRS8 70-183)
T3 sequence: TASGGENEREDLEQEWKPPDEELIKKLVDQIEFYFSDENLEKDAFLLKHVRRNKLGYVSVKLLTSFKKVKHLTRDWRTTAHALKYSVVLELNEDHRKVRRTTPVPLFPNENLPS

HsLARP6 RRM1 (180-295) = biological target: T4, HsLARP6 RRM1 (180-295) (Homo sapiens, UniProt Q9BRS8 180-295)
T4 sequence: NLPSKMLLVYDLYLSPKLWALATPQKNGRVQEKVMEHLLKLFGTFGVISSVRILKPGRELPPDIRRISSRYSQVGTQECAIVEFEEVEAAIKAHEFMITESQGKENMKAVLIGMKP

HsLARP6(70-300) F135A = biological target: T5, HsLARP6(70-300) F135A (Homo sapiens, UniProt Q9BRS8 70-300, F135A)
T5 sequence: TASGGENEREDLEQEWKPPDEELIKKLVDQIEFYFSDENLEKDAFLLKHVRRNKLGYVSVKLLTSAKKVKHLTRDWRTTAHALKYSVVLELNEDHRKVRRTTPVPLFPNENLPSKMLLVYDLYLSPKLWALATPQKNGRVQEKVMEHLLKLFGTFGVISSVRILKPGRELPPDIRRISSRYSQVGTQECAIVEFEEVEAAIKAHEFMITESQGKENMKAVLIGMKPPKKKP

HsLARP6(70-300) R231A = biological target: T6, HsLARP6(70-300) R231A (Homo sapiens, UniProt Q9BRS8 70-300, R231A)
T6 sequence: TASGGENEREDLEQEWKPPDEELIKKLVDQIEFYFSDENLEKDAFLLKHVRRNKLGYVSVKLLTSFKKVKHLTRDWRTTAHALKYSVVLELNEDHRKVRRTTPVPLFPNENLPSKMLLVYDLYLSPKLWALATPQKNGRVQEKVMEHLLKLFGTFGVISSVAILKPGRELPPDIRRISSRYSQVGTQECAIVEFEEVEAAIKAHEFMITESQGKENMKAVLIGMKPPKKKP

HsLARP6(70-300) R244A = biological target: T7, HsLARP6(70-300) R244A (Homo sapiens, UniProt Q9BRS8 70-300, R244A)
T7 sequence: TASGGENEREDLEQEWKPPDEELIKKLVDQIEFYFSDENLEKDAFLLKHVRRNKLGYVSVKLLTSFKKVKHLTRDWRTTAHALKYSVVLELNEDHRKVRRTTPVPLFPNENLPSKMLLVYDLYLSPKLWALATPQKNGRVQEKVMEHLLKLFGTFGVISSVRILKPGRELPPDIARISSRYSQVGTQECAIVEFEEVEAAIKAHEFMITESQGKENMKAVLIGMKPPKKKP

HsLARP6(70-300) Y103A = biological target: T8, HsLARP6(70-300) Y103A (Homo sapiens, UniProt Q9BRS8 70-300, Y103A)
T8 sequence: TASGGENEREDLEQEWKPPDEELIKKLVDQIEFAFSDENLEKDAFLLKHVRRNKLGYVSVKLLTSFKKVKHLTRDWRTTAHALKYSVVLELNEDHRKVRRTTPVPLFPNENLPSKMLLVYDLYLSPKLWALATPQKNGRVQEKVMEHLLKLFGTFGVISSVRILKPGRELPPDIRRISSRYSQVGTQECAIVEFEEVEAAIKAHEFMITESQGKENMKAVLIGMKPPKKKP

HsLARP6(70-300) K196A = biological target: T9, HsLARP6(70-300) K196A (Homo sapiens, UniProt Q9BRS8 70-300, K196A)
T9 sequence: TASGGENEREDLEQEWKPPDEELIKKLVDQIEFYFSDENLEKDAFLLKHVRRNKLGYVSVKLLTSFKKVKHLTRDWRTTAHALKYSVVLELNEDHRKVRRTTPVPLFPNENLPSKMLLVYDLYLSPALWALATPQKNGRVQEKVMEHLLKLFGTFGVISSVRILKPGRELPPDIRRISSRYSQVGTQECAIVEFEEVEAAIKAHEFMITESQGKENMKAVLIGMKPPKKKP

With CCACAAAGAGUCUACAUGUCUAGGGUCUAGACAUGUUCAGCUUUGUGG (structured_RNA) [48 nt RNA (collagen alpha1(I) 5' UTR SL)] as the binder, how does the Kd (HsLARP6(70-300) I260A) read?
The Kd was 26 nM.

What about the Kd (HsLARP6(70-300) Y189A) of the same binder?
The Kd was 59 nM.

Does CCACAAAGAGUCUACAUGUCUAGGGUCUAGACAUGUUCAGCUUUGUGG (structured_RNA) [48 nt RNA (collagen alpha1(I) 5' UTR SL)] bind (HsLARP6 LaM (70-183))?
Result: no binding

Does CCACAAAGAGUCUACAUGUCUAGGGUCUAGACAUGUUCAGCUUUGUGG (structured_RNA) [48 nt RNA (collagen alpha1(I) 5' UTR SL)] bind (HsLARP6 RRM1 (180-295))?
Result: no binding

Does CCACAAAGAGUCUACAUGUCUAGGGUCUAGACAUGUUCAGCUUUGUGG (structured_RNA) [48 nt RNA (collagen alpha1(I) 5' UTR SL)] bind (HsLARP6(70-300) F135A)?
Result: no binding

And the Kd (HsLARP6(70-300) R231A)?
The Kd was 20 nM.

And the Kd (HsLARP6(70-300) R244A)?
Its Kd is 71 nM.

Does CCACAAAGAGUCUACAUGUCUAGGGUCUAGACAUGUUCAGCUUUGUGG (structured_RNA) [48 nt RNA (collagen alpha1(I) 5' UTR SL)] bind (HsLARP6(70-300) Y103A)?
Result: no binding

And the Kd (HsLARP6(70-300) K196A)?
Its Kd is 48 nM.
